Key:
[1] = molecular target: T1, anti-FLT3/anti-albumin/anti-CD3 multispecific protein containing humanized FLH34; test: BLI (Octet), biotinylated FLT3 on streptavidin tips
T1 construct: trispecific single-chain fusion with His6; purified from CHO conditioned medium
Experimental: (§1) The affinities of the purified multispecific proteins for human and cynomolgus FLT3 were measured with an Octet instrument with streptavidin tips were loaded with biotinylated human or cynomolgus FLT3 protein. The tips were then incubated with solutions containing 50, 16.7, 5.6, or 1.9 nM of the multispecific protein. Affinities (KD), listed in Table 7, were calculated by measuring the on rate and off rate of binding of anti-FLT3/anti-albumin/anti-CD3 multispecific proteins to the captured biotinylated FLT3 proteins.

[2] = molecular target: T2, anti-FLT3/anti-albumin/anti-CD3 multispecific protein containing humanized FLH4; test: as above
T2 construct: trispecific single-chain fusion with His6; purified from CHO conditioned medium
Experimental: as §1

[3] = molecular target: T3, anti-FLT3/anti-albumin/anti-CD3 multispecific protein containing humanized FLH92a; test: as above
T3 construct: trispecific single-chain fusion with His6; purified from CHO conditioned medium
Experimental: as §1

[4] = molecular target: T4, anti-FLT3/anti-albumin/anti-CD3 multispecific protein containing humanized FLH78; test: as above
T4 construct: trispecific single-chain fusion with His6; purified from CHO conditioned medium
Experimental: as §1

[5] = molecular target: T5, anti-FLT3/anti-albumin/anti-CD3 multispecific protein containing humanized FLH107; test: as above
T5 construct: trispecific single-chain fusion with His6; purified from CHO conditioned medium
Experimental: as §1

[6] = molecular target: T6, anti-FLT3/anti-albumin/anti-CD3 multispecific protein containing humanized FLH92b; test: as above
T6 construct: trispecific single-chain fusion with His6; purified from CHO conditioned medium
Experimental: as §1

[7] = molecular target: T7, anti-FLT3/anti-albumin/anti-CD3 multispecific protein containing humanized FLH141; test: as above
T7 construct: trispecific single-chain fusion with His6; purified from CHO conditioned medium
Experimental: as §1

[8] = molecular target: T8, anti-FLT3/anti-albumin/anti-CD3 multispecific protein containing humanized FLH19C; test: as above
T8 construct: trispecific single-chain fusion with His6; purified from CHO conditioned medium
Experimental: as §1

[9] = molecular target: T9, anti-FLT3/anti-albumin/anti-CD3 multispecific protein containing FLL153; test: BLI (Octet), conditioned medium, single 50 nM concentration (relative affinity)
T9 construct: trispecific single-chain fusion with His6; Expi293 conditioned medium
Experimental: (§2) Additional affinity determinations were performed using conditioned media from Example 2 with known concentrations of anti-FLT3/anti-CD3 multispecific proteins. […] An Octet instrument with streptavidin tips were loaded with biotinylated human or cynomolgus FLT3 protein, and KD values for binding FLT3 were calculated by measuring the on rate and off rate of binding of anti-FLT3/anti-CD3 multispecific proteins to the biotinylated FLT3 proteins.

[10] = molecular target: T10, anti-FLT3/anti-albumin/anti-CD3 multispecific protein containing FLL8; test: as above
T10 construct: trispecific single-chain fusion with His6; Expi293 conditioned medium
Experimental: as §2

[11] = molecular target: T11, anti-FLT3/anti-albumin/anti-CD3 multispecific protein containing FLL41; test: as above
T11 construct: trispecific single-chain fusion with His6; Expi293 conditioned medium
Experimental: as §2

[12] = molecular target: T12, anti-FLT3/anti-albumin/anti-CD3 multispecific protein containing FLL71; test: as above
T12 construct: trispecific single-chain fusion with His6; Expi293 conditioned medium
Experimental: as §2

[13] = molecular target: T13, anti-FLT3/anti-albumin/anti-CD3 multispecific protein containing FLL92; test: as above
T13 construct: trispecific single-chain fusion with His6; Expi293 conditioned medium
Experimental: as §2

[14] = molecular target: T14, anti-FLT3/anti-albumin/anti-CD3 multispecific protein containing FLL134; test: as above
T14 construct: trispecific single-chain fusion with His6; Expi293 conditioned medium
Experimental: as §2

[15] = molecular target: T8, anti-FLT3/anti-albumin/anti-CD3 …; test: biolayer interferometry (data not shown)
human FLT3 protein [16] = molecular target: T15, human FLT3 protein (human, UniProt P36888 27-541, limits assumed); test: colorimetric ELISA, signal over control wells lacking FLT3
T15 construct: protein coated in the screening ELISA; also called ELISA FLT3
Text: (§3) Llamas were immunized with purified FLT3 protein expressed in Expi293 cells. A phage display library for expression of heavy variable antibody domains was constructed from circulating B cells isolated from the immunized llamas (See van der Linden, de Geus, Stok, Bos, van Wassenaar, Verrips, and Frenken. 2000. J Immunol Methods 240:185-195). Phage clones were screened for binding to FLT3 by expressing llama anti-FLT3 proteins in E. coli, preparing periplasmic extracts, and performing colorimetric ELISAs.

human FLT3 protein [17] = molecular target: T15, human FLT3 protein; test: colorimetric ELISA, periplasmic extract
Text: as §3

T8 sequence (chain, as listed by the source): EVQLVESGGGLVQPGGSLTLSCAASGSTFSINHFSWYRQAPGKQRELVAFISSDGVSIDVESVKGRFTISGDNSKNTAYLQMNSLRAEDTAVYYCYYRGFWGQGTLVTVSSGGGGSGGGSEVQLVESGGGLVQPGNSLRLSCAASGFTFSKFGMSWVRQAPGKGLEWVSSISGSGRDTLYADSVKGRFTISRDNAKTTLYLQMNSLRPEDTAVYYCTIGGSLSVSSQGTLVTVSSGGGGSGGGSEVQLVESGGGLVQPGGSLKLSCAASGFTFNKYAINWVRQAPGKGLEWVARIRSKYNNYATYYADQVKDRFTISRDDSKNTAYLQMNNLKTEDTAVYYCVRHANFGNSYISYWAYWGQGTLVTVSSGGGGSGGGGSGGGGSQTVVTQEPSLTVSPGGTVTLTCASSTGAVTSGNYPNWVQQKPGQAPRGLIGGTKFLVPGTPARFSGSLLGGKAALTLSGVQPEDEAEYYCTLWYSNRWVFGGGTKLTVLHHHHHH
T1 sequence (chain, as listed by the source): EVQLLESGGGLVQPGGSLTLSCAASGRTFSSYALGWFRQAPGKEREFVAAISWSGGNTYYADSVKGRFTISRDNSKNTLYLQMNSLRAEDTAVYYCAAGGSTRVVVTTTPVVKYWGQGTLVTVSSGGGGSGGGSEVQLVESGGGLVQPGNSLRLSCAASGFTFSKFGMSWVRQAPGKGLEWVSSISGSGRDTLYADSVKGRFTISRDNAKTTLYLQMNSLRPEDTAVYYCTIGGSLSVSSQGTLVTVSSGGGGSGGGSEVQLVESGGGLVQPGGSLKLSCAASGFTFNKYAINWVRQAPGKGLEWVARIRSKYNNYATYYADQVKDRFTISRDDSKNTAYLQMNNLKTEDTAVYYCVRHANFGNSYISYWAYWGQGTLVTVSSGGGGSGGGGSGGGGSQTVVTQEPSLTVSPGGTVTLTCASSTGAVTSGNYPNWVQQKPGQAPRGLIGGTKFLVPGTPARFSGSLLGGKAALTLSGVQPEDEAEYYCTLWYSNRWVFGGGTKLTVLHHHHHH
T2 sequence (chain, as listed by the source): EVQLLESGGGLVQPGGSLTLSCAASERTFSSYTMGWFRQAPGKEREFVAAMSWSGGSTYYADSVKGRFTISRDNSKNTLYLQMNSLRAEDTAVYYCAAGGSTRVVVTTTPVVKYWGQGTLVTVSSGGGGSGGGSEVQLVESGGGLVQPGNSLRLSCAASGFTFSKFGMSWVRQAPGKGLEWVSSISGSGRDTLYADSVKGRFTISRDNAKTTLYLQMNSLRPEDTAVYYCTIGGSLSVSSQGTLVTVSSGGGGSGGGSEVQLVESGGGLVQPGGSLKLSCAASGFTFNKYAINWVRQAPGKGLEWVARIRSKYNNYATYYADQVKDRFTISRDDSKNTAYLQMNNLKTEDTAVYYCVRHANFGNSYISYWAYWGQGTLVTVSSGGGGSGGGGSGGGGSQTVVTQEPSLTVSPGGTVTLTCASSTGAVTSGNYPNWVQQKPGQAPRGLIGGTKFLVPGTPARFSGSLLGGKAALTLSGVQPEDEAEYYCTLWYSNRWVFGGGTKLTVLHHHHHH
T5 sequence (chain, as listed by the source): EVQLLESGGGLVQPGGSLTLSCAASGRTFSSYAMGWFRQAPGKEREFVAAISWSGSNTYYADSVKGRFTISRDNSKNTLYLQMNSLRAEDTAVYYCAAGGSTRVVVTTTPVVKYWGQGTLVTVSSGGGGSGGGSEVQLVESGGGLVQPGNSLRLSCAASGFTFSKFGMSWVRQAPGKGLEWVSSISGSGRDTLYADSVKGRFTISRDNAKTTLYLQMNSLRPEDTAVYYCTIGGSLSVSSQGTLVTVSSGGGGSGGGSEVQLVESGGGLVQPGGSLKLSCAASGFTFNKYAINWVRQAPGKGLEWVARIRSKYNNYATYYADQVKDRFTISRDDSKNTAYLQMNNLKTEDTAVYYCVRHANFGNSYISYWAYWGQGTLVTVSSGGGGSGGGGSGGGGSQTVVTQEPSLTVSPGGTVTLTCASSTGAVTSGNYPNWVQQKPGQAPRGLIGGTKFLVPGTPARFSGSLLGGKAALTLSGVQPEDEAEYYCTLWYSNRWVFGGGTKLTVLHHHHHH
T7 sequence (chain, as listed by the source): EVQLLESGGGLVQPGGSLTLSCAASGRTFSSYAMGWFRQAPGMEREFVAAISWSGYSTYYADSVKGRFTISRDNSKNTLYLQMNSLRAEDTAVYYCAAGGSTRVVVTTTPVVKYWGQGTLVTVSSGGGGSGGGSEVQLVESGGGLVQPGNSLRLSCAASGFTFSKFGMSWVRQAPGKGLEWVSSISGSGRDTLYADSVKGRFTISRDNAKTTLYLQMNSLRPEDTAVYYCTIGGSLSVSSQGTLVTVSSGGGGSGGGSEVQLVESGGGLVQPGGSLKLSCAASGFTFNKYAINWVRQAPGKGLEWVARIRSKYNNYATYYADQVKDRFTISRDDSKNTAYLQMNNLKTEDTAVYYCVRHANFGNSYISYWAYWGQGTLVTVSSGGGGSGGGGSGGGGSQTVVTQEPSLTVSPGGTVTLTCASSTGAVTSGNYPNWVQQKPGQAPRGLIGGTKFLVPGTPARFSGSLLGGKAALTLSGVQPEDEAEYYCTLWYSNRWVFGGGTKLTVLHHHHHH
T6 sequence (chain, as listed by the source): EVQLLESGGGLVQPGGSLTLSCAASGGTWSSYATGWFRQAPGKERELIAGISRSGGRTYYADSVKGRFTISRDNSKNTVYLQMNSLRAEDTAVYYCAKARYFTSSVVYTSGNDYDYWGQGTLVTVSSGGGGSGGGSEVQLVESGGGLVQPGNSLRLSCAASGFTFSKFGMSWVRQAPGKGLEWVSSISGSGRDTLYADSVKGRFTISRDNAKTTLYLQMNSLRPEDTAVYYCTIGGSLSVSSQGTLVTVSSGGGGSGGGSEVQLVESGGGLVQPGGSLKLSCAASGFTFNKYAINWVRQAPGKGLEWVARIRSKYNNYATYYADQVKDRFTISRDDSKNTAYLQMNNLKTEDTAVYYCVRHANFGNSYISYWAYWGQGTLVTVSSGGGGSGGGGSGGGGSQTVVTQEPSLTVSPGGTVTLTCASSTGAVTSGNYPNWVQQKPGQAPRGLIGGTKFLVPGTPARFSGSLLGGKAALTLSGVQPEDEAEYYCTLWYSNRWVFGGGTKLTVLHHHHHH
T11 sequence (chain, as listed by the source): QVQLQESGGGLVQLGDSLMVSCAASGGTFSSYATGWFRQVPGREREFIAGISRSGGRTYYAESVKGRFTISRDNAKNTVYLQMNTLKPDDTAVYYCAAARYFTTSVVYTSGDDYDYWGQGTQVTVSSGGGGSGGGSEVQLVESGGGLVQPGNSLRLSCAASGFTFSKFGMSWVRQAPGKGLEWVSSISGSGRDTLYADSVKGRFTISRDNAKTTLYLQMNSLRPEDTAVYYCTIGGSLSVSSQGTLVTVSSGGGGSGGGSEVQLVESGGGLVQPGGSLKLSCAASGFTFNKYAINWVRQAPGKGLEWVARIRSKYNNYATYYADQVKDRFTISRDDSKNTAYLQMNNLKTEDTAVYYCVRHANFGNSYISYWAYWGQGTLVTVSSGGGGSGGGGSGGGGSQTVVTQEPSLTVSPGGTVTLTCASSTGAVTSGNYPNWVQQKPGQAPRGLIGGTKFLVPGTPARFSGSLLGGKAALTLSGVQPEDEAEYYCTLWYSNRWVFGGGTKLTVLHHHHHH
T3 sequence (chain, as listed by the source): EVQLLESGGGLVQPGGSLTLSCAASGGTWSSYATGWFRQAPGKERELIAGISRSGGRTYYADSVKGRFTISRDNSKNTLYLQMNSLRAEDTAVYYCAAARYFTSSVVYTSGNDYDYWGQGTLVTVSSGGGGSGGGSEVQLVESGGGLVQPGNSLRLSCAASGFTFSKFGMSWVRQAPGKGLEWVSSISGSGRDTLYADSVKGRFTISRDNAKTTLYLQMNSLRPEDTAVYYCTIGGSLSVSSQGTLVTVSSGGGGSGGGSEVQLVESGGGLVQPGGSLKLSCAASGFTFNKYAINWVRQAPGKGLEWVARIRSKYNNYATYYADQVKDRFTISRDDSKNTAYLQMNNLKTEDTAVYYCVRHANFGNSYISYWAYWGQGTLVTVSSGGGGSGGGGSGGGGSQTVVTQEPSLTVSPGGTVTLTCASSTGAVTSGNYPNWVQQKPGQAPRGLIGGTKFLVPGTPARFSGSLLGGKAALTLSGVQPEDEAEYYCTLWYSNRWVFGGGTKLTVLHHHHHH
T4 sequence (chain, as listed by the source): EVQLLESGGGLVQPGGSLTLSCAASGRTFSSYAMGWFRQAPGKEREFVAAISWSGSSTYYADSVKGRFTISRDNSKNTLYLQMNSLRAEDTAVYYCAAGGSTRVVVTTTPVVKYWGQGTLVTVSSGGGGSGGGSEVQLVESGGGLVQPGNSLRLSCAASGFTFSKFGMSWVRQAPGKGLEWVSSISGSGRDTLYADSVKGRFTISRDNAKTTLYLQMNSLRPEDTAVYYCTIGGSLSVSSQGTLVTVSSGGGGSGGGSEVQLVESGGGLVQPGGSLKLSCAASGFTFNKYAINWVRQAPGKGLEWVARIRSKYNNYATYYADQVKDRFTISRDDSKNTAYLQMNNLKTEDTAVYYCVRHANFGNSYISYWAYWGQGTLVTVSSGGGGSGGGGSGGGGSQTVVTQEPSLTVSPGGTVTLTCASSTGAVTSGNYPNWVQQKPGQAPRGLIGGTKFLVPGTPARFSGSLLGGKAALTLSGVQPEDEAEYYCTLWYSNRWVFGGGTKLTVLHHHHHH

B1: biotinylated cynomolgus FLT3 protein (receptor, cynomolgus monkey)
chain: NQDLPVIKCVLINHKNNDSSVGKSSSYPMVSESPEDLGCALRPQSAGTVYEAATVEVDVSASITLQVLVDTPGNISCLWVFKHSSLNCQPHFDVQNRGVVSMVILKMTETQAGEYLLFIQSEATNYTIVFTVSIRNTLLFTLRRPYFRKMENQDALVCISESVPEPIVEWVLCDSQGESCKEESPAVVKKEEKVLHELFGTDIRCCARNELGRECTRLFTIDLNQTPQTTLPQLFLKVGEPLWIRCKAVHVNHGFGLTWELENKALEEGSYFEMSTYSTNRTMIRILFAFVSSVARNDTGYYTCSSSKHPSQSALVTIVEKGFINATNSSEDYEIDQYEEFCFSVRFKAYPQIRCTWTFSRKAFPCEQKALDDGYSVSKFCNHKHQPGEYIFHAENGDAQFTKMFTLNIRRKPQVLAEASASQASCSSDGYPLPSWTWKKCSDKSPNCTEDIPEGVWNRKANRKVFGQWVSSSTLNMSEAMKGFLVKCCAYNSLGTSCETILLNSPGPFPFIQDS
modifications: biotinylated (sites not given)
notes: loaded on streptavidin Octet tips; also called Cynomolgus Monkey FLT3
- Kd [1]: 19 nM
- Kd [2]: 214 nM
- Kd [3]: 11.8 nM
- Kd [4]: 161 nM
- Kd [5]: 10 nM
- Kd [6]: 7.8 nM
- Kd [7]: 35 nM
- Kd [8]: 2.7 nM
- Kd [9]: 102 nM
- Kd [10]: 18 nM
- Kd [11]: 34 nM
- Kd [12]: 26 nM
- Kd [13]: 2 nM
- Kd [14]: 24 nM

B2: cynomolgus serum albumin (other, cynomolgus monkey, UniProt A2V9Z4 25-608, looked up)
chain: DTHKSEVAHRFKDLGEEHFKGLVLVAFSQYLQQCPFEEHVKLVNEVTEFAKTCVADESAENCDKSLHTLFGDKLCTVATLRETYGEMADCCAKQEPERNECFLQHKDDNPNLPPLVRPEVDVMCTAFHDNEATFLKKYLYEVARRHPYFYAPELLFFAARYKAAFAECCQAADKAACLLPKLDELRDEGKASSAKQRLKCASLQKFGDRAFKAWAVARLSQKFPKAEFAEVSKLVTDLTKVHTECCHGDLLECADDRADLAKYMCENQDSISSKLKECCDKPLLEKSHCLAEVENDEMPADLPSLAADYVESKDVCKNYAEAKDVFLGMFLYEYARRHPDYSVMLLLRLAKAYEATLEKCCAAADPHECYAKVFDEFQPLVEEPQNLVKQNCELFEQLGEYKFQNALLVRYTKKVPQVSTPTLVEVSRNLGKVGAKCCKLPEAKRMPCAEDYLSVVLNRLCVLHEKTPVSEKVTKCCTESLVNRRPCFSALELDEAYVPKAFNAETFTFHADMCTLSEKEKQVKKQTALVELVKHKPKATKEQLKGVMDNFAAFVEKCCKADDKEACFAEEGPKFVAASQAALA
- Kd [15]: 4.4 nM

B3: FLL122 (VHH)
VHH: QVQLQESGGGLVQAGGSLMVSCAASGGTWSSYATGWFRQVPGKERELIAGISRSGGRTYYAESVKGRFTISRDNAKNTVYLQMNTLKPDDTAVYYCAAARYFTSSVVYTSGNDYDYWGQGTQVTVSS
notes: llama anti-FLT3 variable domain; E. coli periplasmic extract
- FLT3/control (human FLT3 protein [16]): 26 ratio
- ELISA FLT3 (absorbance) (human FLT3 protein [17]): 4 absorbance

B4: FLL153 (VHH)
VHH: QVQLQESGGGLVQVGGSLMVSCAASGGTFSSYATGWFRQVPGKEREFIAGVSRNSGRTYYAESVKGRFTISRDNAKNTVYLQMNTLKPDDTGVYYCAAARYFTRDAVYTSGDDYDYWGQGTQVTVSS
notes: as for B3
- FLT3/control (human FLT3 protein [16]): 15 ratio
- ELISA FLT3 (absorbance) (human FLT3 protein [17]): 1.4 absorbance

B5: FLL134 (VHH)
VHH: QVQLQESGGGLVQPGGSLRLSCAASGGTFSSYATGWFRQVPGKEREFIAGISRNSGRTYAESVKGRFTISRDNAKNTVYLQMNTLRPDDTAVYYCAAARYFTRDAIYTSGDDYDYWGQGTQVTASS
notes: as for B3
- FLT3/control (human FLT3 protein [16]): 15 ratio
- ELISA FLT3 (absorbance) (human FLT3 protein [17]): 1.3 absorbance
